IntAct's records for PubMed 24434579

B1: Seipin (Saccharomyces cerevisiae), Q06058 (parent)
chain: MKINVSRPLQFLQWSSYIVVAFLIQLLIILPLSILIYHDFYLRLLPADSSNVVPLNTFNILNGVQFGTKFFQSIKSIPVGTDLPQTIDNGLSQLIPMRDNMEYKLDLNLQLYCQSKTDHLNLDNLLIDVYRGPGPLLGAPGGSNSKDEKIFHTSRPIVCLALTDSMSPQEIEQLGPSRLDVYDEEWLNTIRIEDKISLESSYETISVFLKTEIAQRNLIIHPESGIKFRMNFEQGLRNLMLRKRFLSYIIGISIFHCIICVLFFITGCTAFIFVRKGQEKSKKHS
partner: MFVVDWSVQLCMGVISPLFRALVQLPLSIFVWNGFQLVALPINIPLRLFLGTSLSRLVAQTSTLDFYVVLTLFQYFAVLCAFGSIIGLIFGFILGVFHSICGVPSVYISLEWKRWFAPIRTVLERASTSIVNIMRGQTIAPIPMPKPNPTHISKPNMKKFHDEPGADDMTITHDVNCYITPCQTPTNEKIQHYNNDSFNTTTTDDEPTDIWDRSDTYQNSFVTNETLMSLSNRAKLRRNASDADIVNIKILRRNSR

Variants of: B1
Conditions: with ldb16_yeast LDB16, P25587

Variant	effect of a mutation on the interaction
MKINVSRPLQFLQWSSYIVVAFLIQLLIILPLSILIYHDFYLRLLPADSSNVVPLNTFNILNGVQFGTKFFQSIKSIPVGTDLPQTIDNGLSQLIPMRDNMEYKLDLNLQLYCQSKTDHLNLDNLLIDVYRGPGPLLGAPGGSNSKDEKIFHTSRPIVCLALTDSMSPQEIEQLGPSRLDVYDEEWLNTIRIEDKISLESSYETISVFLKTEIAQRNLIIHPESPIKFRMNFEQGLRNLMLRKRFLSYIIGISIFHCIICVLFFITGCTAFIFVRKGQEKSKKHS [G225P]	decreasing interaction strength
